Experimental findings from article PMC8745424 are described below.

Data set [1] concerns the target SARS-CoV-2 S-protein RBD (expressed in CHO cells) (SARS-CoV-2 (Wuhan-type)) (UniProt P0DTC2). Kind of data set: BLI. Conditions: BLI (BLItz, streptavidin sensors, […]; RBD 50-200 nM): PBS, 0.55 mM MgCl2, 0.1 mg/mL BSA, 0.002% Tween-20, room temperature; binding-buffer pH not stated.
The target of data set [2] is SARS-CoV-2 S-protein RBD (expressed in P. pastoris) (SARS-CoV-2 (Wuhan-type)) (UniProt P0DTC2). Kind of data set: BLI. The note with it: BLI (BLItz, streptavidin sensors, immobilized aptamer 200 nM; RBD 50-200 nM): PBS, 0.55 mM MgCl2, 0.1 mg/mL BSA, 0.002% Tween-20, room temperature ….

With “ATCCAGAGTGACGCAGCACTGCGTAGGCGCGGCCAATGTGTAGGATTGCTCAGGTCTGCTGGACACGGTGGCTTAGTTTTTTTTTTT [CoV2-RBD-3-Biotin]”, the Kd stood at 24 nM in data set [1] and 2 nM in data set [2].
Taken in the same sequence, the figures for “ATCCAGAGTGACGCAGCAGGACTGCTTAGGATTGCGAAGCTGAGGAGCTCCCCCGCCTTGGACACGGTGGCTTAGTTTTTTTTTTT [CoV2-RBD-5-Biotin]” were 26 nM and 1.2 nM.
Take “ATCCAGAGTGACGCAGCAGTAGGGGGATTGGCTCCAGGGCCTGGCTGACGGTTGCACGTGGACACGGTGGCTTAGTTTTTTTTTTT [CoV2-RBD-6-Biotin]”: the Kd amounted to 10 nM in data set [1] and 1 nM in data set [2].
Taken in the same sequence, the figures for “ATCCAGAGTGACGCAGCATCGAGTGGTGGGCTGGTCGGGTTTGGATTCCCTTAGATGCTGGACACGGTGGCTTAGTTTTTTTTTTT [CoV2-RBD-2-Biotin]” were 4.3 nM and 10 nM.
For the sequence “ATCCAGAGTGACGCAGCATTTCATCGGGTCCAAAAGGGGCTGCTCGGGATTGCGGATATGGACACGTTTTTTTTTTT [CoV2-RBD-4-Biotin]”, the results for the Kd in data set [1] and in data set [2] were 21 nM and 5.5 nM, respectively.
Taken in the same sequence, the figures for “CAGCACCGACCTTGTGCTTTGGGAGTGCTGGTCCAAGGGCGTTAATGGACATTTTTTTTTT [CoV2-RBD-1C-Biotin]” were 27 nM and 1.5 nM.
For “TTTTTTTTTTATCCAGAGTGACGCAGCACTGCGTAGGCGCGGCCAATGTGTAGGATTGCTCAGGTCTGCTGGACACGGTGGCTTAGT [Biotin-CoV2-RBD-3]”, the dissociation constant Kd was 40 nM in data set [1] and 1.4 nM in data set [2].
In the case of “TTTTTTTTTTATCCAGAGTGACGCAGCAGGACTGCTTAGGATTGCGAAGCTGAGGAGCTCCCCCGCCTTGGACACGGTGGCTTAGT [Biotin-CoV2-RBD-5]”, the Kd in data set [1] is 22 nM.
As for “TTTTTTTTTTATCCAGAGTGACGCAGCAGTAGGGGGATTGGCTCCAGGGCCTGGCTGACGGTTGCACGTGGACACGGTGGCTTAGT [Biotin-CoV2-RBD-6]”, the Kd in data set [1] is 29 nM; in data set [2] it was 3.5 nM.
Sequence “TTTTTTTTTTATCCAGAGTGACGCAGCATCGAGTGGTGGGCTGGTCGGGTTTGGATTCCCTTAGATGCTGGACACGGTGGCTTAGT [Biotin-CoV2-RBD-2]” yielded a Kd in data set [1] of 17 nM.
Consider “TTTTTTTTTTATCCAGAGTGACGCAGCATTTCATCGGGTCCAAAAGGGGCTGCTCGGGATTGCGGATATGGACACGT [Biotin-CoV2-RBD-4]”, for which the figures for the Kd in data set [1] and in data set [2] were 18 nM and 14 nM, respectively.
Turning to “TTTTTTTTTTCAGCACCGACCTTGTGCTTTGGGAGTGCTGGTCCAAGGGCGTTAATGGACA [Biotin-CoV2-RBD-1C]”, the results for the Kd in data set [1] and in data set [2] were 5.8 nM and 0.8 nM, respectively.
